Assays:
[1] = target: recombinant human BAD-GST fusion polypeptide (human) (UniProt Q92934); assay: AUC; sedimentation velocity; single proteins or 1:1 molar mixtures incubated on ice 30 min; BAD buffer pH 8.5; 20°C
[2] = target: recombinant human BAD-GST fusion polypeptide (human) (UniProt Q92934); assay: SEC; HiPrep 16/60 Sephacryl S-200 HR, calibrated; single proteins or equimolar mixtures incubated on ice 30 min; BAD buffer pH 8.5; 4°C
[3] = target: recombinant human pancreatic glucokinase (human) (UniProt P35557)
[4] = target: recombinant human Bcl-xL, Δ45–84, Δ210–233 variant (human) (UniProt Q07817); assay: fluorescence polarisation; competition: 200 nM f-BH3, 50 nM Bcl-xL, BAD forms varied 0–50 μM; room temperature
[5] = target: recombinant human BAD-GST fusion polypeptide (human) (UniProt Q92934); assay: ITC; Bcl-xL (100 μM) titrated in 4 μL injections into BAD-GST (10–18 μM) in the cell; 25°C; BAD buffer (0.1 M Tris, 0.1 M KCl, 0.5 M arginine, 2.5 mM CHAPS, 5 mM TCEP, 10% glycerol, pH 8.5)
[6] = target: recombinant human pancreatic glucokinase (human) (UniProt P35557); remark: listed apart in the source
[7] = target: recombinant human pancreatic glucokinase (human) (UniProt P35557); remark: listed apart in the source
[8] = target: T1, Bcl-xL (Homo sapiens, UniProt Q07817, DEL45-84); assay: Analytical ultracentrifugation sedimentation velocity of 1:1 mixture BAD-GST and Bcl-xL; assay type: binding; conditions: 1:1 mixture of BAD-GST and Bcl-xL, 20°C, 50,000 x g, BAD buffer pH 8.5
T1 construct: made in house
Protocol: Sedimentation velocity experiments were conducted with an Optima XLI Ultracentrifuge (Beckman Coulter) using a four-hole rotor with three 420 μL samples in standard double-sector Epon centerpieces equipped with sapphire windows. Absorbance and interference data were collected simultaneously. Size-exclusion purified proteins were concentrated to OD280 nm = 0.3–1.0 prior to centrifugation. For complex formation, proteins were mixed in a 1:1 molar ratio in BAD buffer (0.1 M Tris, 0.1 M KCl, 0.5 M arginine, 2.5 mM CHAPS, 5 mM TCEP, 10% glycerol, pH 8.5) and incubated on ice 30 min prior to the start of the experiment. Experiments were carried out at 20°C and 50,000 x g. Data were analyzed with Ultrascan III software using a minimum of 70 scans per sample for analysis. Van Holde-Weischet analysis was performed to obtain S20,W values.

[9] = Circular dichroism spectroscopy (secondary structure); assay type: physicochemical; conditions: far UV CD, 25°C, pH 7.8, 3–15 μM, CDPro
Protocol: Proteins were dialyzed overnight into potassium phosphate buffer (50 mM, pH 7.8) containing KCl (50 mM), glycerol (5% v/v), and TCEP (4 mM). CD spectra were recorded on an AVIV 202 CD spectrometer at 25°C with protein concentrations ranging from 3–15 μM. Spectra were recorded from 200–260 nm in 10 mm pathlength cuvettes using a 1 nm step resolution and 3 s integration time. Three scans were recorded per sample, averaged, and baseline subtracted with appropriate buffer controls. CD signals were converted to molar ellipticity and deconvoluted using CDPro Software.

[10] = target: T1, Bcl-xL; assay: Fluorescence polarization competition with f-BH3 for binding to Bcl-xL; conditions: ITC and fluorescence polarization assays
Protocol: Exon 1 of human bcl-xl lacking the C-terminal residues 189–233 was obtained from Stanley Korsmeyer (Addgene plasmid 8755) and site-directed mutagenesis was performed to create the Δ45–84, Δ210–233 variant. Bcl-xL was expressed and purified using a modified procedure described previously. Briefly, Bcl-xL was purified by nickel affinity chromatography and dialyzed against potassium phosphate buffer (20 mM, pH 7.4) containing NaCl (50 mM), EDTA (1 mM), and DTT (10 mM). Protein was applied to a Superdex 200 10/30 HR size-exclusion column, at a flow rate of 0.02 mL/min, to remove aggregate and oligomers prior to binding assays.
A fluorescence polarization assay developed by Zhang, et al. was utilized to measure interactions between BAD and its binding partners. Two 21-residue FITC-labeled peptides containing the BH3 domain of BAD were synthesized and purified to >95% by Peptide2.0 (f-BH3 = NLWAAQRYGRELRRMSDK(FITC)FVD; f-pBH3 = NLWAAQRYGRELRRM(p)SDK(FITC) FVD). Polarization was measured at room temperature with an excitation wavelength of 485 nm and an emission wavelength of 530 nm using a SpectraMax M5 microplate reader (Molecular Devices). Experiments to measure binding constants of the fluorescent peptides to Bcl-xL or GCK were performed in black 96-well plates. Each well contained 15 nM peptide, 60 μL BAD buffer (0.1 M Tris, 0.1 M KCl, 0.5 M arginine, 2.5 mM CHAPS, 5 mM TCEP, 10% glycerol, pH 8.5) and variable concentrations of Bcl-xL (0–2.25 μM) or GCK (0–400 μM) in assay buffer (20 mM phosphate buffer, pH 7.4, 1 mM EDTA, 50 mM NaCl, 10 mM DTT) in a final volume of 120 μL. High GCK concentrations were chosen in an effort to detect a signal indicating a binding event. Assays containing GCK also contained 250 mM glucose. […] Plates were incubated at room temperature in the dark for 15 min prior to polarization measurements.

[11] = target: T2, human pancreatic GCK (Homo sapiens, UniProt P35557); assay: Isothermal titration calorimetry with GCK; assay type: binding; conditions: GCK (100 μM) titrated into S118D BAD-GST (10–15 μM), 13 μL injections, BAD buffer pH 8.5, 25°C
T2 construct: hexahistidine (N); made in house; host or cells: glucokinase auxotroph BM5340(DE3)
T2 sequence (P35557 1-465): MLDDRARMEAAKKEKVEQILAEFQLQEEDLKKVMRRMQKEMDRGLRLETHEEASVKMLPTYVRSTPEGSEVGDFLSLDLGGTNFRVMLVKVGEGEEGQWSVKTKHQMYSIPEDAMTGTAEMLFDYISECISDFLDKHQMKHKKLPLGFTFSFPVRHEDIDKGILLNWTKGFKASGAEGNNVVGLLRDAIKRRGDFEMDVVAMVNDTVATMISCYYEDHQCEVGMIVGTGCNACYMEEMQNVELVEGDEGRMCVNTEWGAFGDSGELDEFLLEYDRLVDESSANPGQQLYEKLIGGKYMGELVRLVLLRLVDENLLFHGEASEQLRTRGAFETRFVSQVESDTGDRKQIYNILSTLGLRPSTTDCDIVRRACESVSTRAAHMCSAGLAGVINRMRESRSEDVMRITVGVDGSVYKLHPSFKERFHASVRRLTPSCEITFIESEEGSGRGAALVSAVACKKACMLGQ
Protocol: Recombinant human pancreatic GCK containing an N-terminal hexahistidine tag was produced in the glucokinase auxotroph BM5340(DE3) and purified using a previously described procedure. TEV protease was expressed as a GST-fusion protein from a pGEX plasmid encoding the S219V variant, provided by David Waugh (Addgene plasmid 8827). Expression was induced with IPTG (1 mM) for 4 h at 30°C. Cell pellets were resuspended in Tris buffer (50 mM, pH 8.0) containing NaCl (100 mM), glycerol (10% v/v), benzamidine (1 mM) and dithiothreitol (10 mM) and lysed via French Press. Polyethyleneimine (0.1%) was added to the lysate and protein was purified on a glutathione-affinity column (GSTrap, GE Sciences). TEV protease was flash frozen and stored at -80°C for up to 1 month.
Isothermal titration calorimetry was performed at 25°C using a MicroCal VP-ITC (GE Healthcare) instrument. Bcl-xL (100 μM) in BAD buffer (0.1 M Tris, 0.1 M KCl, 0.5 M arginine, 2.5 mM CHAPS, 5 mM TCEP, 10% glycerol, pH 8.5) was titrated into the calorimeter cell containing size-exclusion chromatography purified BAD-GST (10–18 μM) in 4 μL injections. A 21-residue phosphorylated peptide containing the BH3 domain of BAD was synthesized and purified to >95% by Peptide2.0 (pBH3 = NLWAAQRYGRELRRM(p)SDKFVD). The peptide (300 μM) in potassium phosphate buffer (25 mM) containing KCl (25 mM), TCEP (4 mM) and DMSO (5%) with and without glucose (200 mM) was titrated into the cell containing GCK (10 μM) previously dialyzed against the same buffer. GCK (100 μM) in BAD buffer was titrated into the cell containing S118D BAD-GST (10–15 μM) in 13 μL injections. Data were analyzed using Origin software.

[12] = target: T3, GCK (Homo sapiens, UniProt P35557); assay: GCK activity, microplate G6PDH-linked assay as described by Szlyk et al. (37°C); assay type: biochemical; conditions: S118D BADGST 5 μM, or pBH3 5 μM; GCK 7.5 nM, 96 well plate; S2 Fig
T3 construct: hexahistidine (N); made in house; host or cells: glucokinase auxotroph BM5340(DE3)
T3 sequence (P35557 1-465): T2 sequence (P35557 1-465)
Protocol: Steady state kinetics were also performed as described by Szlyk, et al.[13]. Briefly, G6PDH-linked assays were performed in clear 96-well plates at 37°C with a SpectraMax M5 microplate reader (Molecular Devices) recording absorbance at 340 nm every 30 s. Reaction mixtures contained GCK (7.5 nM), HEPES (100 mM, pH 7.4), KCl (150 mM), MgCl2(6 mM), DTT (1 mM), NAD (1 mM), BSA (0.05%), G6PDH (2.5 U), glucose (0.5–100 mM), and ATP (5 mM) in the presence or absence of BAD-GST S118D variant (5 μM) or phosphorylated BAD BH3 peptide (5 μM) in a final volume of 100 μL.
GCK (7.5 nM) was assayed in the presence of A. S118D BADGST (5 μM) or B. pBH3 (5 μM) in a 96 well plate using a microplate reader. Buffer conditions were as follows: Ref [13]: 100 mM Hepes, pH 7.4; 150 mM KCl; 1 mM NAD+; 0.05% BSA; 6 mM MgCl2; 1 mM DTT; 2.5 U G6PDH; 5 mM ATP. Optimal GCK conditions: 100 mM Hepes, pH 7.4; 150 mM KCl; 1 mM NADP+; 6 mM MgCl2; 10 mM DTT; 1.5 U G6PDH; 5 mM ATP. (EPS) Click here for additional data file.

[13] = tested on: BAD-knockout hepatocytes; conditions: ref [9]; cited from earlier work
Excerpt: Phosphorylation of BAD modulates its participation in apoptosis and glucose metabolism. High glucose concentrations stimulate BAD phosphorylation at three serine residues, resulting in reduced pro-apoptotic activity. In particular, phosphorylation at Ser155, within the BH3 domain of murine BAD, prevents interaction with Bcl-xL, thereby quenching BAD’s apoptotic activity. […] Moreover, i ...

## recombinant human BAD-GST fusion polypeptide (from UniProt Q92934 1-168) (natural protein)
[1]
  stoichiometry N: 2
[2]
  stoichiometry N: 2
[3]
  percent increase in GCK rate, glucose 0.5–1.0 mM, largest at 0.8 mM glucose with BAD-GST ≥ 2 μM: 10%
[4]
  IC50: 130 nM

## recombinant human Bcl-xL, Δ45–84, Δ210–233 variant (from UniProt Q07817-1 1-209) (domain or fragment)
[1]
  stoichiometry N (Bcl-xL per BAD-GST dimer): 2
[5]
  Kd: 7 nM

## BAD-GST phosphorylated in vitro with PKAc (from UniProt Q92934 1-168) (natural protein)
[6]
  increase in GCK activity over unmodified BAD-GST at 1.0 mM glucose: 5%
[7]
  increase in GCK activity at glucose below the K0.5 value with phosphorylated BAD (> 2 μM): 15%
[4]
  IC50: 1600 nM

B1: Bcl-xL: recombinant human Bcl-xL Δ45–84, Δ210–233 variant (protein)
chain: MSQSNRELVVDFLSYKLSQKGYSWSQFSDVEENRTEAPEGTESEAVKQALREAGDEFELRYRRAFSDLTSQLHITPGTAYQSFEQVVNELFRDGVNWGRIVAFFSFGGALCVESVDKEMQVLVSRIAAWMATYLNDHLEPWIQENGGWDTFVELYGNNAAAESRKGQER
modifications: left off: His tag (from the nickel affinity chromatography), end not stated, state not stated
notes: recombinant human Bcl-xL Δ45–84, Δ210–233 variant
[8]
  Sedimentation coefficient: 1.3
[9]
  Random coil content: roughly 30%
  α-helical content: 43%
  β-sheet content: 14%

B2: S118D variant: S118D phosphomimic variant of BAD-GST (protein)
chain: MFQIPEFEPSEQEDSSSAERGLGPSPAGDGPSGSGKHHRQAPGLLWDASHQQEQPTSSSHHGGAGAVEIRSRHSSYPAGTEDDEGMGEEPSPFRGRSRSAPPNLWAAQRYGRELRRMDDEFVDSFKKGLPRPKSAGTATQMRQSSSWTRVFQSWWDRNLGRGSSAPSQ
modifications: left off: His6, N-terminal, state not stated | GST, C-terminal, kept
[10]
  Ability to interact with Bcl-xL (in words): significantly impaired in their ability to interact with Bcl-xL
[11]
  Binding to GCK by ITC: no detectable binding event
[12]
  Effect on GCK kinetics under Szlyk et al. buffer conditions: did not increase BAD’s effects on GCK kinetics

B3: S155D BAD variant: phosphomimic murine BAD variant, ref 9 (protein, UniProt Q61337 1-204, looked up, variant S155D)
Bcl2-associated agonist of …: MGTPKQPSLAPAHALGLRKSDPGIRSLGSDAGGRRWRPAAQSMFQIPEFEPSEQEDASATDRGLGPSLTEDQPGPYLAPGLLGSNIHQQGRAATNSHHGGAGAMETRSRHSSYPAGTEEDEGMEEELSPFRGRSRSAPPNLWAAQRYGRELRRMDDEFEGSFKGLPRPKSAGTATQMRQSAGWTRIIQSWWDRNLGKGGSTPSQ
[13]
  Effect on GCK activity in hepatocytes: stimulates GCK activity in hepatocytes
  Restoration of normal glycolytic metabolism in BAD-knockout hepatocytes: normal glycolytic metabolism can be restored

Source: PMC5300155, “Biochemical and biophysical investigations of the interaction between human glucokinase and pro-apoptotic BAD” (PLoS ONE, 2017)
